Experiment: label from the status in PepcDB records

Sequence | protein production
MVEENQLQSLKDVAKQAPVHRKLDIQEWKTAEGAKVLFVEAHELPMFDLRLTFAAGSSQDAGTPGLSMLTNAMLNEGVPGKDTTAIAAGFEDLGASFSNGSYRDMAVAGLRSLSEADKRTQALKLFEQVIGQPTFPEDALARIKNQVLAGFEYQKQNPGKLAGLELFKRLYGEHPYAHSSDGDEKSVPTISREQLQAFHKKAYAAGNVVIALVGDLSRQEAEAIAAEVSKALPQGPALAKTVQPETPKPGLTHIDFPSEQTHLMLAQLGIDRQDPDYAALYLGNQILGGGGFGTRLMDQVREKRGLTYGIYSGFTAMQARGPFMINFQTRAELSEGALKLVQDIVRDYLANGPTQKELDDAKRELAGSFPLSTASNADIVGQLGAIGFYGLPLDYLESFLKQVEGLSVEQVRTAMAKHLDADAFVIVSAGLEHHHHHH | not failed
MVEFELLRSLGIMLLAALGVVLVARTARVPNIVAYIGAGLLLGPALGVLTVTHTIELIAEFGIILLLFLVGLELSLDKIKAVGTTAFVAGGVQMGGTALGGGLLAGLVGVPVVEAVVVAVAIMFSSTVVVVKMLEKQSDLDAPYGQIAVGVLLVQDLVVVMVLTFVAGLAGPGELAWADVARGLGQAFVGMVLLGGLIAAAARYVLPPAIQWISRMTEGLFIWSLFWCFLVVLGAEALHLSPELGAFLAGIALAQLPQCHELRQRVHPLMNFFIIVFFVSLGLQMELGAALARWPLALALAAFVMVVKPLLFFGVLPRLGHGEETSFRTGLSLAQISEFSLIFGALALSSGLIDEALLSVITLVGLVTFALSSFLLLYSDRLYAAVKPYRPLAWLGARQEAPAPPPDGLQGHVIVVGLNTLGRCLVDRLTAAGETVVAVDTDPEKLARRSVSTVHGNAVHETTREAADWEDAKLVVSSLSIEGTNNLLAYHAQRAGVPCSIHAFDRTSENSLRTFGVDHLIRSKHEGARRLLDELKSRAVLS | failed
MVEGLGRIGFGLFGLAVLIGITWLFSSNRRAIDWKLVATGLALQISFAALVLLVPGGRDVFDALGKGFVKVLSFVNEGSTFIFGNLMNIDSYGFIFAFQVLPTIIFFSALMGVLYHLGVMQMVVRAMAWAITKVMRVSGAETTSVCASVFIGQTEAPLTVRPYIPKMTQSELLTMMIGGMAHIAGGVLAAYVGMLGGSDPAQQAFYAKHLLAASIMAAPATLVVAKLLVPETGTPLTRGTVKMEVEKTTSNVIDAAAAGAGDGLRLALNIGAMLLAFIALIALINAPLTWLGEVTGATALLGRPTNLSTIFGYVLAPIAWVIGTPWVDATTVGSLIGQKVVINEFVAYSELSRIVKGEVRGVGLSAEGRLIATYALCGFANFSSIAIQIGGIGGLAPERRHDLANFGLRAVLGGSIATFMTATIAGVLSHFG | failed
MVEIIPVSTTLELRAADESHVPALHQLVLKNKAWLQQSLDWPQYVTSQEETRKHVQGNILLHQRGYAKMYLIFCQNEMAGVLSFNAIEPINKAAYIGYWLDESFQGQGIMSQSLQALMTHYARRGDIRRFVIKCRVDNQASNAVARRNHFTLEGCMKQAEYLNGDYHDVNMYARIIDAD | not failed
MVEMNKRGQFFIIGGVILSIGLILFFLLGFNSYTSDGSYLTVFKMKDVKNSIESCLINSLTSNSNLSKNLDMLKNNYKDEGIEINYKKIIFSNIRYEAKNLTFNFSLYNGNFSYNISNYGFGGAFNGSLNVSNYVFSKNLLLNISENGSVTGSFNITGSYVNVFVYDRFGNLILNETIYNNSNEKSLYYYILNVSKEGILLYLLWQRMFLTTHWQKMYPL | failed
MVEPGVAKLTTYASKQATDMGAIYVNSKGDRIVNESNVYTTFRNAILKQADKVAYLVMDERTWKKVYDLLILHDFTPEEIKSFFENKGKRPVFVKGSLESAAEQAGIVVDELVQTVKNYQGYVQDGHDHDFGRDPKYLHQFEGETFYIIEQRLEHHHHHH | failed
MVESKTKFEEIRKWVSDHKLRTVGCLWLSGITGSIAYNWSQPAMKTSVKIIHARLHAQALTLAALAGAAVVEYYDHKTEATNRYPKFLPPENLSHKD | failed
MVFMANKKKTKGKKTRRPTKAEIERQRAIQRMITALVLTIILFFGIIRLGIFGITVYNVIRFMVGSLAYLFIAATLIYLYFFKWLRKKDSLVAGFLIASLGLLIEWHAYLFSMPILKDKEILRSTARLIVSDLMQFKITVFAGGGMLGALIYKPIAFLFSNIGAYMIGVLFIILGLFLMSSLEVYDIVEFIRAFKNKVAEKHEQNKKERFAKREMKKAIAEQERIERQKAEEEAYLASVNVDPETGEILEDQAEDNLDDALPPEVSETSTPVFEPEILAYETSPQNDPLPVEPTIYLEDYDSPIPNMRENDEEMVYDLDDDVDDSDIENVDFTPKTTLVYKLPTIDLFAPDKPKNQSKEKDLVRKNIRVLEETFRSFGIDVKVERAEIGPSVTKYEIKPAVGVRVNRISNLSDDLALALAAKDVRIETPIPGKSLIGIEVPNSEIATVSFRELWEQSDANPENLLEVPLGKAVNGNARSFNLARMPHLLVAGSTGSGKSVAVNGIISSILMKARPDQVKFMMIDPKMVELSVYNDIPHLLIPVVTNPRKASKALQKVVDEMENRYELFSKIGVRNIAGYNTKVEEFNASSEQKQIPLPLIVVIVDELADLMMVASKEVEDAIIRLGQKARAAGIHMILATQRPSVDVISGLIKANVPSRIAFAVSSGTDSRTILDENGAEKLLGRGDMLFKPIDENHPVRLQGSFISDDDVERIVGFIKDQAEADYDDAFDPGEVSETDNGSGGGGGVPESDPLFEEAKGLVLETQKASASMIQRRLSVGFNRATRLMEELEAAGVIGPAEGTKPRKVLMTPTPSE | failed
MVGERMWWWSSSSTKLRSNLERFLRGITPKPPSFSLSQSCKNDLNSLWIHENKDEIEYFRLSDLWDCFDEPSAYGLGSKVDLNNGESVMQYYVPYLSAIQIYTNKSTAISRIHSDVVDCESECWSDDSEIEKLSRSMSSGSSKIWDSVSDDSGYEIDGTSSLMRDKLGSIDFQYFESVKPHLRVPLTAKVNELAEKYPGLSTLRSVDLSPASWLAIAWYPIYHIPSRKTDKDLSTCFLSYHTLSSAFQGNLIEGDDEINETMKEETLCFDEGPVTKSIPLAPFGLVSYKLQGDLWRNQECGDQGRIVYLRSAADSWLKQLNVQDHHDHSFFSMNMSL | failed
MVGKSKSPEFNFEDGMAYFDAVKVALQDTEPEKYQEFVRIFIDYTANRFGFETLSASLQELLRDHANLCHGSNVLLPFRLQTAIPPEASAEFHINKVVGRSVPPAVAVPTMDDATSYLNAVKEAFHDEPAKYMEITKLLTDLKARRINAASVIARMEELLKDHLNLLLGFCVFLSPTRRFITKLKARFLGDGSQVVDSVLQILRMHSEGNKSKDEASQEVRALIQGHEDLLMELSEIFSDP | failed
MVGRDNVENTAMGEALSPSQISGRVDAVWGNPMAWEAAGWQWERLPAIRRMVNRHVTGDEAIDPLSWFFQRVAKDQTLPVRRALVLACGAGGLERQLISQGWVSEVVAVDLSPGALAAARDAARQAGISGIDYRQADMNALDVEGPFDLAVGSSALHHCENLEGIFAVVRRVLVPGGWFFLNDYIGPNRLQYDAAQVLEVNRLLQCLPDPLVMNAAGFSRRGFRPASLAEVIAFDPSEAPRSADILRVMGEALEVETVRPYGGNLLYLVLSNLAQNFDPAQSGDAAAPDYLRLLIEASDHWRATRHGQDHFAAAIARQPIS | failed
MVGRRVSPALTKDDAHSYIIAVKETFHDEPTKYQEFIKLLNGVCDHRVDKYSVIARVEELMKDHQDLLLGFSVFLPPVSVEDFINKLKSKFVHLQTRFQSLDTHVVGAIRGLMKMFKEGKMSVKEVQEEVIDVLFYHEDLIEDFLRFFTKNPVSTASLLLQL | failed
MVGVRMTKKVLIVEDNELNMKLFHDLLEAQGYETLQTREGLSALSIARENKPDLILMDIQLPEISGLEVTKWLKEDDDLAHIPVVAVTAFAMKGDEERIREGGCEAYISKPISVVHFLETIKRLLERQPA | not failed
MVHTPLNFKFSEKREEWNLRFCRNVGVSIVELVTADASSAYVRGLMAVNGSKVYSILPFISIDAEKAKKAKFPEDRMSGVRGKVIPSVLPEIKGETILDIGCGFGTLTMELAKNNPESQVYGIDLHDSLTGQAEMNAEVLGLPNVEFRTGSAYALPFEKDSIDAVTCFLMLHHLEDIKFALFEIKRVLKKGGSLTAVEPLAHQHHHGPQLSEAEWKELFEEAGFGTETENMEGAVVLRAVKRELEHHHHHH | failed
MVIDQTDPIYVLFHDEEWGVPVRDDKKLFELLVFSQALAEFSWPSILRRRDDFRKLFEEFDPSAIAQFTEKRLMSLRVNGCLILSEQKLRAIVENAKSVLKVKQEFGSFSNYCWRFVNHKPLRNGYRYGRQVPVKSPKAEYISKDMMQRGFRCVGPTVMYSFLQASGIVNDHLTACFRYQECNVETERETKSHETETKLDLHSPLLV | failed
MVINRKIIGSYTQRQIAALLTDEPPSEQPKCNVRVVEMTYTTVGVVGEPARASGVVLVPDGPQCPGPYPVLGWGSATETLRSAEQAKGIISANGDDPLVTRLASQGYVVVSTDYLGLGGSNYPYHPYLHANSEASALIDALRASRTVLQHLNTPLSNKLMLSGFSQGGHTAMATQREIEAHLSNEFSLVASAPISGPYALSQTFLDTWTGRNEVGENNFAIILGTYAIVGMQRTYRNIYSDPSQVFQDPWANQVEALFPGKKDTTDLFLGDDLPAIDQIKEYFQPGFYSDFPKNRKNPFFVDLVRNDLLNWAPRTPTLLCGSDNDTVVPFLKNTNLAIASFKKRGSRQVSVVDIGTGNRKDNSALTHLSSEELCIVKVRNEFLEKKR | failed
MVIRGTNNDDNLIGTTGNDIIEGLGGNDRFEGGRGNDTLTGGTGNDVFNLEQQQDNDVVTDFVRGQDKIDLRNLNINDWATLQLLISNDGQDNALITTFFNGSQSQIKLLNINPNLLQASDFIFNTVNLNQTIDGTNFADQLFGGLGNDTLRGFNGNDVLFGEQGDDRFEGGRGNDTFYGGAGNDVFNLEQQQDNDVVTDFVRGQDKIDLRNLNINDWATLQLLISNDGQDNALITTFFNGSQSQIKLLNINPNLLQASDFIFNTVNLNQTIDGTNFADQLFGGLGNDTLRGFFGNDVLFGEQGDDRFEGGRGNDTFYGGAGNDVFNLEQLQDNDVVTDFVRGQDKIDLRNLNINDWATLQLLISNDGQNNALITTFFNGDQSQIKLLNINPNLLQASDFIFNTVNLNQTIDGTNSPDQLFGGLGNDTLRGFFGNDVLFGEQGDDRFEGGRGNDTFYGGAGNDVFNLEQLQDNDVVTDFVQGQDKIDIRNLNINDWATLQLLISNDGQDNALITTFFNGDQSQIKLLNINPNLLQASDFIFNTVNLNQTIDGTNSPDQLFGGLGNDTLRGFFGNDVLFGEQGDDRFEGGRGNDTFYGGAGNDVFNLEQLQDNDVVIDFVQGQDKIDIRSLNISDWATLQLLISNDGQNNALITTFFNGDQSQIKLNNINPNLLQASDFIFNTNTVNLNQTIDGTNSPDQLFGGLGNDTLRGFFGNDVLFGEQGDDRFEGGAGNDTFYGGTGNDIAVYLGTRSQYQVTSNGGVFTVTDTVANRDGVDTLREVEQIQFSDQTITIGNTSPTITLAVSPASVTEDGTPNLIYTFTRTGSTTNALTVNYSVAGTATLNTDYAQTGAASFTATTGTITFAVGASTAILTINPTADTTVESNETVALTLASGTGYTVGTTTAVTGTITNDDFPSITLAVSPASVTEDGTPNLIYTFTRTGSTTNALTINFGVAGTATLNTDYAQSGAASFTATTGTITFAAGASTAILTINPTADTTVESNETVALTLASGTGYTVGTTTAVTGTITNDDTLPTGITINLSGSQTIVEGNSSPQNVTYTVTLSQASSQIITVQYATANGTATAGSDYTSTTGTLTFNPGETSKVINIPILNDSVNEANETFTLRLTSPTNATLGTTNTVTTTITDTLSASVTTTLPTNVENLTLTGTAAINGTGNAGNNILTGNSGNNILSGGAGNDTYAFVANAALGTDTITETATGGIDTIDFNGSTATVRVNLGVTTSQTVNNNLKLILSANNVIENATGGTGNDRLTGNALNNILAGGNGNDQLQGLAGNDTLWGGLGDDILTGGIGQDKYLFQSSGVFSSSLGVDYISQFDVGQDQIVLSKATFNAVTNSAGQALTDFAVVSDDEFVNASSARIVYSQGSGSLFYNRDGNVLGTSTVFEFARLGNPDITLSSSDFSLIA | failed
